Read-outs that look alike come from different tables or passages of the source.
Experiments:
Assay in all cases: AUC
[1] = biological target: GluA4 flip ectodomain, L484Y mutant (R. norvegicus)
[2] = biological target: GluA4 flip ectodomain, L484Y mutant (R. norvegicus); remark: listed apart in the source
[3] = biological target: GluA4 flip ectodomain, wild type (NTD and LBD in a tandem array) (R. norvegicus)

Substance	Kd [1] [nM]	Kd [2] [nM]	stoichiometry N [2]	Kd [3] [nM]	stoichiometry N [3]
GluA4 flip ectodomain, L484Y mutant (domain or fragment)	1500	1100	4		
GluA4 flip ectodomain, wild type (NTD and LBD in a tandem array) (domain or fragment)				300	2

From publication PMC3249379
